From the supplement of paper PMC9112550, “Optimization of the antimicrobial peptide Bac7 by deep mutational scanning” (BMC Biology, 2022) come the findings set out here.

The test system of this data set is Escherichia coli TOP10. The experiment in a line: shrunken log2 fold change of peptide-encoding DNA abundance (4.5 h post-induction vs induction); higher = less antimicrobial activity (less host growth inhibition). The note with it: time post-induction: 4.5 h; library: site-saturation at positions 5, 18, 19, 20.
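Further: peptides expressed intracellularly from a pBAD plasmid library in pooled LB shake-flask culture, induced with 0.3% L-arabinose, DNA abundance read by NGS, three biological replicates, DESeq2 with apeglm shrinkage.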

Turning to RRIRGRPPRLPRPRPRPNRYPRP, the “shrunken log2 fold change” value is 0.0443.
In the case of RRIRSRPPRLPRPRPRPLQYPRP it was -0.221; in that of RRIRNRPPRLPRPRPRPFFWPRP, 0.0463.
On to RRIRCRPPRLPRPRPRPRMYPRP, for which the “shrunken log2 fold change” value was -0.562.
Turning to RRIRMRPPRLPRPRPRPEKFPRP, the “shrunken log2 fold change” value is -0.000921.
In the case of RRIRSRPPRLPRPRPRPWEDPRP it was -0.0124; in that of RRIRERPPRLPRPRPRPYTCPRP, -0.398.
In the case of RRIRRRPPRLPRPRPRPSDLPRP it was 0.0119; in that of RRIRPRPPRLPRPRPRPHFFPRP, 0.118.
The figure for RRIRWRPPRLPRPRPRPPVWPRP is 0.478.
Consider RRIRVRPPRLPRPRPRPQIDPRP, for which the “shrunken log2 fold change” value is -0.321.
As for RRIRARPPRLPRPRPRPFFKPRP, the “shrunken log2 fold change” value is -0.0427.
For RRIRMRPPRLPRPRPRPGLVPRP, the “shrunken log2 fold change” value came to 0.294.
The figure for RRIRNRPPRLPRPRPRPVAWPRP is -0.01; for RRIRLRPPRLPRPRPRPLKEPRP it is 0.00325; for RRIRIRPPRLPRPRPRPWLWPRP it is -0.0533.
Turning to RRIRFRPPRLPRPRPRPFNHPRP, the “shrunken log2 fold change” value was -0.285.
Turning to RRIRGRPPRLPRPRPRPNIVPRP, the “shrunken log2 fold change” value came out at 0.364.
With RRIRGRPPRLPRPRPRPTPTPRP, the “shrunken log2 fold change” value was 0.98.
The figure for RRIRQRPPRLPRPRPRPERLPRP is -0.0028; for RRIRLRPPRLPRPRPRPWNDPRP it is 0.041; for RRIRLRPPRLPRPRPRPWHEPRP it is 0.0149.
The figure for RRIRARPPRLPRPRPRPKCTPRP is 0.316; for RRIRNRPPRLPRPRPRPRSGPRP it is -0.0312; for RRIRERPPRLPRPRPRPKSMPRP it is -0.307.
As for RRIRGRPPRLPRPRPRPMGFPRP, the “shrunken log2 fold change” value was determined as 0.315.
Consider RRIRRRPPRLPRPRPRPWSRPRP, for which the “shrunken log2 fold change” value was 0.0777.
With RRIRCRPPRLPRPRPRPKNKPRP, the “shrunken log2 fold change” value is -0.244.
In the case of RRIRARPPRLPRPRPRPTVIPRP it was 0.0535.
In the case of RRIRMRPPRLPRPRPRPSDKPRP it was 0.0839.
In the case of RRIRWRPPRLPRPRPRPLCIPRP, the “shrunken log2 fold change” value is -0.275.
Turning to RRIRYRPPRLPRPRPRPSECPRP, the “shrunken log2 fold change” value is -0.347.
The figure for RRIRARPPRLPRPRPRPLHQPRP is 0.147.
On to RRIRTRPPRLPRPRPRPIVQPRP, for which the “shrunken log2 fold change” value amounted to 0.0444.
In the case of RRIRWRPPRLPRPRPRPGGGPRP it was 0.953.
In the case of RRIRERPPRLPRPRPRPSIDPRP it was -0.0545; in that of RRIRWRPPRLPRPRPRPIYTPRP, -0.412.
Turning to RRIRLRPPRLPRPRPRPEVYPRP, the “shrunken log2 fold change” value was found to be 0.0314.
In the case of RRIRHRPPRLPRPRPRPNCNPRP it was -0.589; in that of RRIRQRPPRLPRPRPRPNAGPRP, 0.0853; in that of RRIRTRPPRLPRPRPRPCLMPRP, -0.15.
Take RRIRLRPPRLPRPRPRPHCNPRP: the “shrunken log2 fold change” value was -0.363.
Consider RRIRFRPPRLPRPRPRPLTIPRP, for which the “shrunken log2 fold change” value is -0.219.
The figure for RRIRDRPPRLPRPRPRPKWCPRP is 0.135; for RRIRVRPPRLPRPRPRPRTVPRP it is 0.16.
The figure for RRIRDRPPRLPRPRPRPFAAPRP is 1.62; for RRIRSRPPRLPRPRPRPNTVPRP it is -0.308.
As to RRIRKRPPRLPRPRPRPAIRPRP, the “shrunken log2 fold change” value was -0.29.
Regarding RRIRCRPPRLPRPRPRPWYTPRP, the “shrunken log2 fold change” value is -0.739.
In the case of RRIRMRPPRLPRPRPRPHNWPRP it was 0.249; in that of RRIRYRPPRLPRPRPRPLSQPRP, 0.0967; in that of RRIRARPPRLPRPRPRPYSFPRP, -0.0794.
The figure for RRIRNRPPRLPRPRPRPRATPRP is 0.659.
In the case of RRIRVRPPRLPRPRPRPQRAPRP it was 0.348; in that of RRIRQRPPRLPRPRPRPSMEPRP, 0.0775; in that of RRIRVRPPRLPRPRPRPSWCPRP, 0.123.
Consider RRIRFRPPRLPRPRPRPWNFPRP, for which the “shrunken log2 fold change” value was -0.0389.
The figure for RRIRPRPPRLPRPRPRPCGAPRP is 0.206.
As for RRIRFRPPRLPRPRPRPNFGPRP, the “shrunken log2 fold change” value was found to be 0.0849.
The figure for RRIRARPPRLPRPRPRPYYYPRP is -0.602; for RRIRVRPPRLPRPRPRPLIMPRP it is -0.502; for RRIRCRPPRLPRPRPRPNTRPRP it is -0.267.
The figure for RRIRWRPPRLPRPRPRPNYFPRP is -0.167; for RRIRLRPPRLPRPRPRPRSPPRP it is 0.803; for RRIRPRPPRLPRPRPRPHYCPRP it is -0.997.
On to RRIRMRPPRLPRPRPRPWTPPRP, for which the “shrunken log2 fold change” value was determined as 0.28.
In the case of RRIRGRPPRLPRPRPRPDELPRP it was 0.955.
The figure for RRIRERPPRLPRPRPRPIEPPRP is -0.26; for RRIRTRPPRLPRPRPRPLPDPRP it is -0.0997.
For RRIRRRPPRLPRPRPRPHHWPRP, the “shrunken log2 fold change” value came out at 0.0825.
In the case of RRIRERPPRLPRPRPRPGVYPRP it was -0.049; in that of RRIRKRPPRLPRPRPRPATGPRP, 0.145.
The figure for RRIRWRPPRLPRPRPRPIPPPRP is 0.101; for RRIRERPPRLPRPRPRPYLHPRP it is -0.96; for RRIRERPPRLPRPRPRPEKHPRP it is -0.13.
In the case of RRIRVRPPRLPRPRPRPRFAPRP it was 0.527; in that of RRIRARPPRLPRPRPRPREYPRP, 0.5; in that of RRIRWRPPRLPRPRPRPPRTPRP, 0.663.
RRIRRRPPRLPRPRPRPVTHPRP: the “shrunken log2 fold change” value was determined as 0.598.
For the sequence RRIRIRPPRLPRPRPRPCECPRP, the “shrunken log2 fold change” value was found to be 0.0112.
In the case of RRIRNRPPRLPRPRPRPESLPRP it was 0.0505; in that of RRIRYRPPRLPRPRPRPKGRPRP, -0.258.
For the sequence RRIRWRPPRLPRPRPRPYCLPRP, the “shrunken log2 fold change” value is -0.633.
In the case of RRIRMRPPRLPRPRPRPRHTPRP it was 1.15; in that of RRIRGRPPRLPRPRPRPQHPPRP, 0.426; in that of RRIRCRPPRLPRPRPRPWVRPRP, -0.0386.
Turning to RRIRIRPPRLPRPRPRPRWLPRP, the “shrunken log2 fold change” value stood at 0.119.
In the case of RRIRYRPPRLPRPRPRPYNAPRP it was -0.471; in that of RRIRARPPRLPRPRPRPKLNPRP, 0.16.
For the sequence RRIRCRPPRLPRPRPRPPGFPRP, the “shrunken log2 fold change” value was 0.822.
For the sequence RRIRRRPPRLPRPRPRPHWGPRP, the “shrunken log2 fold change” value worked out at 0.291.
The figure for RRIRPRPPRLPRPRPRPAQDPRP is 0.0233.
In the case of RRIRQRPPRLPRPRPRPCAVPRP it was 0.0208; in that of RRIRNRPPRLPRPRPRPWMFPRP, -0.182; in that of RRIRFRPPRLPRPRPRPRHRPRP, 0.195.
Consider RRIRVRPPRLPRPRPRPFCAPRP, for which the “shrunken log2 fold change” value came to 0.00539.
In the case of RRIRGRPPRLPRPRPRPDQIPRP it was 0.167; in that of RRIRMRPPRLPRPRPRPIEAPRP, 0.111.
In the case of RRIRKRPPRLPRPRPRPNHYPRP it was -0.441; in that of RRIRSRPPRLPRPRPRPLRMPRP, 0.0358; in that of RRIRQRPPRLPRPRPRPENNPRP, -0.331.
The figure for RRIRQRPPRLPRPRPRPDWDPRP is -0.00122; for RRIRIRPPRLPRPRPRPEIIPRP it is -0.00386; for RRIRSRPPRLPRPRPRPPPIPRP it is 0.572.
Consider RRIRSRPPRLPRPRPRPFPEPRP, for which the “shrunken log2 fold change” value is -0.22.
As for RRIRERPPRLPRPRPRPCFTPRP, the “shrunken log2 fold change” value is -0.453.
The figure for RRIRKRPPRLPRPRPRPGIQPRP is 0.0822; for RRIRTRPPRLPRPRPRPTTHPRP it is 0.05.
As to RRIRNRPPRLPRPRPRPMLQPRP, the “shrunken log2 fold change” value was determined as 0.00157.
The figure for RRIRERPPRLPRPRPRPHFQPRP is 0.0177; for RRIRCRPPRLPRPRPRPIFKPRP it is -0.323.
As for RRIRTRPPRLPRPRPRPFMGPRP, the “shrunken log2 fold change” value is -0.0574.
In the case of RRIRVRPPRLPRPRPRPSKPPRP it was -0.242.
As to RRIRERPPRLPRPRPRPHMSPRP, the “shrunken log2 fold change” value was -0.27.
In the case of RRIRMRPPRLPRPRPRPIDHPRP it was 0.0383.
On to RRIRHRPPRLPRPRPRPSDGPRP, for which the “shrunken log2 fold change” value was -0.266.
As to RRIRHRPPRLPRPRPRPDFQPRP, the “shrunken log2 fold change” value was -0.00193.
For the sequence RRIRTRPPRLPRPRPRPTLFPRP, the “shrunken log2 fold change” value is -0.113.
On to RRIRERPPRLPRPRPRPHRMPRP, for which the “shrunken log2 fold change” value is -0.305.
The figure for RRIRERPPRLPRPRPRPDMLPRP is -0.166; for RRIRLRPPRLPRPRPRPYGCPRP it is -0.318; for RRIRDRPPRLPRPRPRPENAPRP it is 0.37.
In the case of RRIRDRPPRLPRPRPRPLVGPRP it was 0.337.
Regarding RRIRYRPPRLPRPRPRPKGSPRP, the “shrunken log2 fold change” value was -0.143.
In the case of RRIRKRPPRLPRPRPRPEVDPRP it was 3.04.
